Test results taken from the Immune Epitope Database (IEDB).

Assays:
[1] = target: HLA-B*40:01; experiment: IEDB peptide-MHC binding, purified MHC/competitive/radioactivity; filed as Kd, often an IC50 or EC50 that approximates it; ≥ and ≤ were set here for values at or beyond the usual limits of such assays
[2] = target: HLA-A*01:01; experiment: as above
[3] = target: HLA-A*30:01; experiment: as above
[4] = target: HLA-A*32:01; experiment: as above
[5] = target: HLA-A*30:02; experiment: as above
[6] = target: HLA-A*26:01; experiment: as above
[7] = target: HLA-A*29:02; experiment: as above
[8] = target: HLA-A*02:06; experiment: as above
[9] = target: HLA-A*68:02; experiment: as above
[10] = target: HLA-A*24:02; experiment: IEDB peptide-MHC binding, purified MHC/competitive/fluorescence; ≥ and ≤ were set here for values at or beyond the usual limits of such assays
[11] = target: HLA-B*51:01; experiment: IEDB peptide-MHC binding, purified MHC/competitive/radioactivity; filed as Kd, often an IC50 or EC50 that approximates it; ≥ and ≤ were set here for values at or beyond the usual limits of such assays
[12] = target: HLA-B*44:02; experiment: as above
[13] = target: HLA-B*08:01; experiment: as above; conditions: source organism: Dengue virus 1 Brazil/97-11/1997
[14] = target: HLA-A*11:01; experiment: as above; conditions: source organism: Dengue virus 4 Philippines/H241/1956
[15] = target: HLA-A*03:01; experiment: as above; conditions: source organism: Dengue virus 4 Philippines/H241/1956
[16] = target: HLA-B*46:01; experiment: IEDB peptide-MHC binding, purified MHC/direct/fluorescence; filed as Kd, often an IC50 or EC50 that approximates it; ≥ and ≤ were set here for values at or beyond the usual limits of such assays; conditions: source organism: Yellow fever virus
[17] = target: HLA-A*26:01; experiment: as above; conditions: source organism: Influenza A virus (A/Egypt/96/2002(H1N2))
[18] = target: HLA-A*02:03; experiment: IEDB peptide-MHC binding, purified MHC/competitive/radioactivity; filed as Kd, often an IC50 or EC50 that approximates it; ≥ and ≤ were set here for values at or beyond the usual limits of such assays; conditions: source organism: Dengue virus 1 Brazil/97-11/1997
[19] = target: HLA-B*08:01; experiment: IEDB peptide-MHC binding, purified MHC/direct/fluorescence; filed as Kd, often an IC50 or EC50 that approximates it; ≥ and ≤ were set here for values at or beyond the usual limits of such assays; conditions: source organism: West Nile virus
[20] = source organism: Dengue virus 2 Jamaica/1409/1983
[21] = source organism: Lymphocytic choriomeningitis virus (strain Armstrong)
[22] = source organism: Lymphocytic choriomeningitis virus (strain WE)
[23] = source organism: Dengue virus 1 Brazil/97-11/1997
[24] = source organism: Dengue virus 3 Martinique/1243/1999
[25] = source organism: Dengue virus 4 Philippines/H241/1956
[26] = source organism: Vaccinia virus WR
[27] = source organism: Mammarenavirus guanaritoense

LETRTETWM gave a Kd [1, 20] of 253 nM.

In the case of LQFGFGWFSY, the Kd [2, 21] is reported as at least 70400 nM, the Kd [3, 21] is reported as 5210 nM and the Kd [4, 21] is reported as 7.32 nM. The Kd [5, 21] was 4.99 nM, the Kd [6, 21] was 473 nM and the Kd [7, 21] was 19.6 nM.

LSVSLVLVGV was tested, and the Kd [8, 20] was 75.5 nM and the Kd [9, 20] was 12.2 nM.

LTAIANQATV gave a Kd [9, 20] of 18.8 nM.

In the case of LTDNDDILM, the Kd [2, 22] is reported as 21.3 nM, the Kd [3, 22] is reported as 19200 nM and the Kd [4, 22] is reported as 12600 nM. For the same sequence, the Kd [5, 22] was 587 nM, the Kd [6, 22] was at least 47400 nM and the Kd [7, 22] was 9140 nM.

Sequence LTVAANEMGL has a Kd [9, 23] of 198 nM.

For LWFNYLFGG, the IC50 ([10]; source organism: Variola virus) was 57800 nM.

For MAEIPLQWI, the Kd [11, 24] was 3430 nM.

With MEFIDGISLG the Kd [1, 25] was 137 nM.

MEIRPISEK showed a Kd [12, 24] of 1260 nM.

Work on MPIRYQTTA yielded a Kd [11, 23] of 1690 nM and a Kd [13] of 201 nM.

MTATPPGSV was tested, and the Kd [9, 23] was 6.2 nM.

For MTLWYMWQVK, the Kd [14] was 6.51 nM, the Kd [4, 25] was 927 nM and the Kd [15] was 7.82 nM.

In the case of NTPEGIIPA, the Kd [9, 23] is reported as 9.22 nM.

NTSMAMTCI gave a Kd [9, 25] of 238 nM.

In the case of PKRSVMLIG, the IC50 [10, 26] is reported as 38400 nM.

In the case of PSATKRWGF, the IC50 ([10]; source organism: Sudan ebolavirus) is reported as 10200 nM.

PWTKISETK showed an IC50 [10, 26] of at least 169000 nM.

QESADSFLL gave an IC50 ([10]; source organism: Zaire ebolavirus) of at least 138000 nM.

Work on QVFGAIYGA yielded a Kd [9, 20] of 1.97 nM.

In the case of RFLVINRLG, the IC50 [10, 26] is reported as 16400 nM.

For RTWHYCGSY, the Kd [16] was at least 20000 nM.

Work on SEVSNVQRI yielded a Kd ([12]; source organism: Lymphocytic choriomeningitis virus (strain Armstrong) (clone 53b)) of 12 nM.

In the case of SLIKYKKTLL, the Kd ([9]; source organism: Homo sapiens) is reported as 649 nM.

For STLELRSGY, the Kd [17] was 24.8 nM.

Sequence SWDNTSVDLY has a Kd [2, 27] of 1280 nM, a Kd [3, 27] of 9330 nM and a Kd [4, 27] of at least 69900 nM. For the same sequence, the Kd [5, 27] was 147 nM, the Kd [6, 27] was at least 69700 nM and the Kd [7, 27] was 856 nM.

With TAIANQATV the Kd [9, 20] was 10 nM.

With TAYGVLFSGV the Kd [8, 23] was 1.54 nM, the Kd [9, 23] was 5.16 nM and the Kd [18] was 16.1 nM.

TEAKQPATL was tested, and the Kd [1, 20] was 18.6 nM.

Sequence TEVDRTEAK has a Kd [12, 24] of at least 20800 nM.

TIAVSMANI showed a Kd [9, 20] of 34.2 nM.

TTDFTRLRY was tested, and the Kd [2, 27] was 7.53 nM, the Kd [3, 27] was 1930 nM and the Kd [4, 27] was 11500 nM. It also gave a Kd [5, 27] of 551 nM, a Kd [6, 27] of 2410 nM and a Kd [7, 27] of 59.5 nM.

With VPFCSHHFHE the Kd [11, 24] was at least 66600 nM.

Work on VVIFILLMLV yielded a Kd [8, 24] of 971 nM and a Kd [9, 24] of 767 nM.

Work on WLHRGPKEF yielded a Kd [19] of 2510 nM.

With YSEESPTEY the Kd [2, 27] was 225 nM, the Kd [3, 27] was 19400 nM and the Kd [4, 27] was at least 77800 nM. It also gave a Kd [5, 27] of at least 76900 nM, a Kd [6, 27] of at least 77900 nM and a Kd [7, 27] of at least 25400 nM.
